In US20130130315A1 (ADVANCECOR, published 2013) one finds EC50, IC50 and Kd data, which are given here for four molecules.

Assay [1] deals with T1, CD133 protein (UniProt O43490 20-865, limits assumed).
T1 construct: whole, on cells; Presented on AC133/293 cells: paraformaldehyde-fixed in the cellular ELISA, unfixed in the phage FACS; also called CD133 antigen; AC133
T1 sequence (looked up): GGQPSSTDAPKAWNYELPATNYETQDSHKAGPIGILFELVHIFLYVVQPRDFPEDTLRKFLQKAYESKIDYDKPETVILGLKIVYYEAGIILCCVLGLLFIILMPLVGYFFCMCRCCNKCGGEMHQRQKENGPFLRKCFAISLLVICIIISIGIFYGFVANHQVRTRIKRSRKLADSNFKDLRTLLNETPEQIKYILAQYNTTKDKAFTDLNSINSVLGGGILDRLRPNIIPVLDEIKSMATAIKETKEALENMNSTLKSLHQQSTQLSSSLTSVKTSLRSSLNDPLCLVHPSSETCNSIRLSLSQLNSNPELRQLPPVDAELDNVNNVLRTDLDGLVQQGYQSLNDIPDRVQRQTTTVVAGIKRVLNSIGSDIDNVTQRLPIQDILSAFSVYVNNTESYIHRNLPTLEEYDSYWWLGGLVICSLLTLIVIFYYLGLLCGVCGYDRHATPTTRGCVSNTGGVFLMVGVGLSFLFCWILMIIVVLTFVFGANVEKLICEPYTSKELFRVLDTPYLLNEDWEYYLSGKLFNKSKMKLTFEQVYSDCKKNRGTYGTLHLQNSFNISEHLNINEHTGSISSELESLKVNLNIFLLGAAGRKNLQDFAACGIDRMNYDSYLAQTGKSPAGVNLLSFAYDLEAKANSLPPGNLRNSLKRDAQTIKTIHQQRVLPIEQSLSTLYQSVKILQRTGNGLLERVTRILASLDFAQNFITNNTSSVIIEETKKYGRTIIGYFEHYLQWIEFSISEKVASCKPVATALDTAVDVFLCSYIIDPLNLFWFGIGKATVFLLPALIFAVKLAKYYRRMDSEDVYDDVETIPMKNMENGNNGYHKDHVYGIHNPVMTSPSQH
In words: cellular ELISA on fixed AC133/293 cells. Here is the method:
1×10⁵ cells in 0.2 ml of medium were added to each well and incubated o/n at 37° C., 5% CO₂ to allow cells to attach to the surface of the plate. The next day wells were washed once with 0.2 ml PBS and fixed with 0.1 ml 2% Paraformaldehyde (in PBS, pH 7.4) for 10-20 min at RT. Wells were washed with PBS-T (PBS+0.1% Tween-20) and blocked with either 1× RotiBlock or 3% milk in PBS-T for 1 hour at RT. After washing with PBS-T, serial dilutions of the respective antibody were added to the wells and incubated at RT for at least one hour while shaking. After washing with PBS-T, 0.1 ml of StrepMAb-Classic-HRP (1:10000 in PBS-T, lba BioTagnology, Göttingen, Germany) or of horseradish peroxidase linked anti-mouse IgG (1:10000 in PBS-T, Dianova, Hamburg, Germany) was added and incubated at RT for one hour with shaking. After washing with PBS-T, 0.1 ml of 1-Step Ultra TMB-ELISA substrate (Thermo Scientific, Braunschweig, Germany) was added and incubated until an adequate blue staining developed. To stop the reaction 0.1 ml 1 M H₂SO₄ was added to each well and absorbance at 450 nm and 595 nm as a reference was measured with an infinite F200 plate reader (TECAN, Männedorf, Switzerland). […] Signals were detected using an anti-mouse IgG-HRP antibody (1:10000 in PBS-T, Dianova, Hamburg, Germany). […]
A general note: An ELISA detects its analyte on a solid surface through an enzyme-linked reagent.

Assay [2] deals with T2, bovine collagen I (bovine, UniProt P02453 162-1217; P02465 80-1117, limits assumed).
T2 construct: also called immobilized collagen I; soluble collagen I
In words: ELISA on immobilized bovine collagen I. The procedure: Fc-protein was used as negative control.
An Immulon 2 HB 96-well plate (NUNC, Rochester, N.Y.) was coated with 0.1 ml 1 μg/ml bovine collagen I in 15 mM Na₂CO3, 35 mM NaHCO3, pH 9.6 o/n at 4° C. Wells were washed with PBS-T, blocked with 0.1 ml 1× RotiBlock (Roth, Karlsruhe, Germany) in PBS-T for one hour and washed again before addition of 0.1 ml of threefold dilutions of fusion protein. After one hour incubation at RT with shaking, wells were washed with PBS-T. Wells were incubated with 0.1 ml anti-human IgG-HRP (Dianova, Hamburg, Germany) 1:10000 in PBS-T for one hour at RT with shaking. The plate was washed with PBS-T and incubated with 0.1 ml 1-Step Ultra TMB-ELISA (PIERCE, Rockford, Ill.). After blue staining had developed sufficiently, reactions were stopped by addition of 0.1 ml 1 M H₂SO₄. Absorbance was measured at 450 nm and 595 nm as a reference wavelength using an infinite F200 plate reader (TECAN, Männedorf, Switzerland). EC₅₀ values were calculated with Sigma Plot 11 using Four Parameter Logistic.

Assay [3] addresses T1, CD133 protein. Put plainly: competition cellular ELISA on fixed AC133/293 cells; competitor of 2 nM W6B3H10 mAb. The procedure: 1×10⁵ cells in 0.2 ml of medium were added to each well and incubated o/n at 37° C., 5% CO₂ to allow cells to attach to the surface of the plate. The next day wells were washed once with 0.2 ml PBS and fixed with 0.1 ml 2% Paraformaldehyde (in PBS, pH 7.4) for 10-20 min at RT. Wells were washed with PBS-T (PBS+0.1% Tween-20) and blocked with either 1× RotiBlock or 3% milk in PBS-T for 1 hour at RT. After washing with PBS-T, serial dilutions of the respective antibody were added to the wells and incubated at RT for at least one hour while shaking. After washing with PBS-T, 0.1 ml of StrepMAb-Classic-HRP (1:10000 in PBS-T, lba BioTagnology, Göttingen, Germany) or of horseradish peroxidase linked anti-mouse IgG (1:10000 in PBS-T, Dianova, Hamburg, Germany) was added and incubated at RT for one hour with shaking. After washing with PBS-T, 0.1 ml of 1-Step Ultra TMB-ELISA substrate (Thermo Scientific, Braunschweig, Germany) was added and incubated until an adequate blue staining developed. To stop the reaction 0.1 ml 1 M H₂SO₄ was added to each well and absorbance at 450 nm and 595 nm as a reference was measured with an infinite F200 plate reader (TECAN, Männedorf, Switzerland). […] Signals were detected using an anti-mouse IgG-HRP antibody (1:10000 in PBS-T, Dianova, Hamburg, Germany).

Assay [4] addresses T3, CD133 protein (UniProt O43490 20-865).
T3 chain: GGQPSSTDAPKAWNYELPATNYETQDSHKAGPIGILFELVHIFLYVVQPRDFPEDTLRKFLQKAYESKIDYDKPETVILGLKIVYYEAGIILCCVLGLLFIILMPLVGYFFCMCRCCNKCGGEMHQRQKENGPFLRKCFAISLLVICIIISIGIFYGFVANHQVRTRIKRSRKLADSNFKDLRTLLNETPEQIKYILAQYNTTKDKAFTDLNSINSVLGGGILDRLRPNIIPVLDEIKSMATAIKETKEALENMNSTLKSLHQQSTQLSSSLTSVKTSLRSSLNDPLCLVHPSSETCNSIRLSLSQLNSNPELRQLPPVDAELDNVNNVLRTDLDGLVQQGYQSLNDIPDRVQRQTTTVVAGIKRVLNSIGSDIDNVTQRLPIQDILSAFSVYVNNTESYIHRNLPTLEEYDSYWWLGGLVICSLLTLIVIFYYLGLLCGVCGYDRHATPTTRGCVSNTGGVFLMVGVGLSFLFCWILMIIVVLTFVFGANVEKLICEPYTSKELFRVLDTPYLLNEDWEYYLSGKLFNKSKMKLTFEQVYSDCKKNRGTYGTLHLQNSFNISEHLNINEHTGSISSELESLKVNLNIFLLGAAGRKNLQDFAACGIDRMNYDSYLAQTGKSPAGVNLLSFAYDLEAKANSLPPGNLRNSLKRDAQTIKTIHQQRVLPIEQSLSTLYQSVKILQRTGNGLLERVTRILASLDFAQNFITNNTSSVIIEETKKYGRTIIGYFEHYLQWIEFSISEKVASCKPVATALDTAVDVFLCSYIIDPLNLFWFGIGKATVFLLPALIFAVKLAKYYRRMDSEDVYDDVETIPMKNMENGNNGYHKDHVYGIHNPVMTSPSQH
In words: FACS; panel A, Median FI. A general note: A flow cytometer gives signals particle by particle.

The target of assay [5] is T1, CD133 protein. Put plainly: FACS of phage dilution series on AC133/293 cells, mean fluorescence index.
Assay [6] concerns the target T3, CD133 protein. In words: FACS; panel A, Geo-Mean FI.
In assay [7] the target is T1, CD133 protein. In words: FACS of phage dilution series on AC133/293 cells.

T2 sequence (P02453 162-1217 limits assumed, chain 1 of 2): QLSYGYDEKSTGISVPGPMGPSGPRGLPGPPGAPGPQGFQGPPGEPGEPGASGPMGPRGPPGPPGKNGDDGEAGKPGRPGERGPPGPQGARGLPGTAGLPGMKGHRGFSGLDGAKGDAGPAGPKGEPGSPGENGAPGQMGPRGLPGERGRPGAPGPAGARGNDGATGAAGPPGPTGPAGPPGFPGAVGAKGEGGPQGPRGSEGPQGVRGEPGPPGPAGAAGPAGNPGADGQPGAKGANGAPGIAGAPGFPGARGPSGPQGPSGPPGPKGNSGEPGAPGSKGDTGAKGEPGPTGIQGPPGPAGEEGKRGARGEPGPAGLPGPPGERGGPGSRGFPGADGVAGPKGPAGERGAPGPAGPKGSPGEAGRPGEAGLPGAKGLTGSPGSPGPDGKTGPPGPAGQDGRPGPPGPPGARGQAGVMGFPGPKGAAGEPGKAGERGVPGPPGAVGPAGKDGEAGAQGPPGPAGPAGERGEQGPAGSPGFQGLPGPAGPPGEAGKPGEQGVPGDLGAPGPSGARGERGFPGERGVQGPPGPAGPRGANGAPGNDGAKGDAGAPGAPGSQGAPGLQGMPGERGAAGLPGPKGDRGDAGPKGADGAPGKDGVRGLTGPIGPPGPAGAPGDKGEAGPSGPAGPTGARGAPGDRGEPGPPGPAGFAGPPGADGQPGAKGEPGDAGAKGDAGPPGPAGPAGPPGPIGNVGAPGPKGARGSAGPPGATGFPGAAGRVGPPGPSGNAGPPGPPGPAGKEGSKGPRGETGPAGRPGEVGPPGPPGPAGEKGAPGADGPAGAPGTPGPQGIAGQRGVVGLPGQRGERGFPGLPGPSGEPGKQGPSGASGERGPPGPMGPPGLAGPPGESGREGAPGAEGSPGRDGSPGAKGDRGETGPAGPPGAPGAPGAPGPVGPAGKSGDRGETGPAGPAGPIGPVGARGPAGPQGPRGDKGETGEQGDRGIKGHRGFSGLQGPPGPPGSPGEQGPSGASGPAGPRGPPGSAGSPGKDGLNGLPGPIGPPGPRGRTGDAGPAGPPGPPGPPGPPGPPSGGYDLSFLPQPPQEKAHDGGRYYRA
T2 sequence (P02465 80-1117 limits assumed, chain 2 of 2): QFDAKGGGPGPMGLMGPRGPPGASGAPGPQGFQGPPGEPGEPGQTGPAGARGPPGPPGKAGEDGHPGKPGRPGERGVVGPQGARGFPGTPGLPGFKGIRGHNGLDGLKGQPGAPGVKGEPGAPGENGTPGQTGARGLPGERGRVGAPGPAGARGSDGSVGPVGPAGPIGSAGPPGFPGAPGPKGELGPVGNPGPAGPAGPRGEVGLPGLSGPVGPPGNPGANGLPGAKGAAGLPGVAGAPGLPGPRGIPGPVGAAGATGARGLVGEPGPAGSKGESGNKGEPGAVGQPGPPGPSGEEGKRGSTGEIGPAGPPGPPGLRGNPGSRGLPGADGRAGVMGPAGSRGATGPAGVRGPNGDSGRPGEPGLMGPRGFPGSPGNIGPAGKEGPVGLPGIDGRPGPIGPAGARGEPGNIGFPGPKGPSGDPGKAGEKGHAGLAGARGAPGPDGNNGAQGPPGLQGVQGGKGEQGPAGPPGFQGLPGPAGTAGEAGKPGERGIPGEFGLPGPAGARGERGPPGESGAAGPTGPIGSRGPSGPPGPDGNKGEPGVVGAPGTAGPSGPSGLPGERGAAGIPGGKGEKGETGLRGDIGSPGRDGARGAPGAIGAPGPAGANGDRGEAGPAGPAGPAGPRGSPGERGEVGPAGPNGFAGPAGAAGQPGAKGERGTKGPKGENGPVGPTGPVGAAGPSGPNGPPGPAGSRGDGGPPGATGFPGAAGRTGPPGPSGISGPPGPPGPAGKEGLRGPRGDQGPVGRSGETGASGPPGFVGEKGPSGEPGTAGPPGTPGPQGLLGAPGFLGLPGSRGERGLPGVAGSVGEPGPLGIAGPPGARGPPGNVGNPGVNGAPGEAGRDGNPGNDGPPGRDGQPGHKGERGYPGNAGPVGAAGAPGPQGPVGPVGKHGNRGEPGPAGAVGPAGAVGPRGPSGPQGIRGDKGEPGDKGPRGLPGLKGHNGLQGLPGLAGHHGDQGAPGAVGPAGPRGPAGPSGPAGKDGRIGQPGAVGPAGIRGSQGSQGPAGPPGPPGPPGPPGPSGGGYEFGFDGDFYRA

B1: fusion protein scFv-lh-GPVI-FcIgG2 (Fc fusion)
chain: DILMTQSPKSMSMSLGERVTLSCKASENVDTYVSWYQQKPEQSPKVLIYGASNRYTGVPDRFTGSGSATDFSLTISNVQAEDLADYHCGQSYRYPLTFGAGTKLELKGGGGSGGGGSGGGGSEVQLQQSGPDLMKPGASVKISCKASGYSFTNYYVHWVKQSLDKSLEWIGYVDPFNGDFNYNQKFKDKATLTVDKSSSTAYMHLSSLTSEDSAVYYCARGGLDWYDTSYWYFDVWGAGTAVTVSSQSGPLPKPSLQALPSSLVPLEKPVTLRCQGPPGVDLYRLEKLSSSRYQDQAVLFIPAMKRSLAGRYRCSYQNGSLWSLPSDQLELVATGVFAKPSLSAQPGPAVSSGGDVTLQCQTRYGFDQFALYKEGDPAPYKNPERWYRASFPIITVTAAHSGTYRCYSFSSRDPYLWSAPSDPLELVVTGTSVTPSRLPTEPPSSVAEFSEATAELTVSFTNKVFTTETSRSITTSPKESDSPAGPARQYYTKGNGGRVECPPCPAPPVAGPSVFLFPPKPKDTLMISRTPEVTCVVVDVSHEDPEVQFNWYVDGVEVHNAKTKPREEQFNSTFRVVSVLTVVHQDWLNGKEYKCKVSNKGLPAPIEKTISKTKGQPREPQVYTLPPSREEMTKNQVSLTCLVKGFYPSDIAVEWESNGQPENNYKTTPPMLDSDGSFFLYSKLTVDKSRWQQGNVFSCSVMHEALHNHYTQKSLSLSPGK
notes: also called parental fusion protein; mouse fusion protein
Broadly, the EC50 is the concentration needed to bring the measured effect to its halfway point. A higher EC50 goes with weaker potency. In general, IC50 refers to the point on the concentration scale where inhibition reaches its midpoint. Take B1: the EC50 in assay [1] came out at 0.21 nM; in assay [2] it was 6.3 nM. In addition, in assay [3], the IC50 came out at 3.1 nM.

B2: phage clone 26 (humanized single chain antibody clone 26) (scFv)
scFv: DIQMTQSPKSLSASVGDRVTITCKASENVDTYVSWYQQKPGKAPKVLIYGASNRYTGVPSRFTGSGSATDFTLTISSLQPEDFATYYCGQSYRYPLTFAQGTKVEIKGGGGSGGGGSGGGGSEVQLVQSGAEVKKPGASVKVSCKASGYSFTNYYVHWVKQAPGQGLEWMGYVDPFNGDFNYNQKFKDRVTLTVDTSTSTAYMELSSLTSEDRAVYYCARGGLDWYDTSYWYFDVWGQGTLVTVSS
notes: not shown: fusion to the phage coat protein; display format not described
By Kd is commonly meant the concentration at which binding is half-saturated. Low readings indicate higher affinity, high ones lower affinity. As for B2, the figures for the Kd in assay [4], in assay [5] and in assay [6] were 0.0213 nM, 0.0322 nM and 0.0182 nM, respectively.

B3: phage clone 27 (humanized single chain antibody derived from phage clone 27) (scFv)
scFv: DIQMTQSPKSLSMSVGDRVTITCKASENVDTYVSWYQQKPGKAPKVLIYGASNRYTGVPSRFSGSGSATDFTLTISSLQPEDFATYHCGQSYRYPLTFGQGTKVEIKGGGGSGGGGSGGGGSEVQLVQSGAEVKKPGASVKVSCKASGYSFTNYYVHWVKQAPGQGLEWMGYVDPFNGDFNYNQKFKDRVTLTVDTSTPTAYMELSSLTPEDTAVYYCARGGLDWYDTSYWYFDVWGQGTLVTVSS
notes: as for B2
On to B3, for which the Kd in assay [7] was 0.0508 nM.

B4: phage clone 29 (humanized single chain antibody derived from phage clone 29) (scFv)
scFv: DIQMTQSPRSLSVSVGDRVTITCKASENVDTYVSWYQQKPGKAPKVLIYGASNRYTGVPSRFTGSGSATDFTLTISSLQPEDFATYYCGQSYRYPLTFGQGTKVEIKGGGGSGGGGSGGGGSEVQLVQSGAEVKKPGASVKVSCKACGYSFTNYYVHWVKQAPGQGLEWMGYVDPFNGDLNYNQKFKDRVTLTVDTSTSTAYMELSSLTSEDTAVYYCARGGLHCYDTSYWYFDVWGQGTLVTVSS
notes: as for B2
Regarding B4, binding in assay [7] was put at a Kd of 0.103 nM.
